Patent publication US20090163594A1, “Triple Assay System for Identifying Substrate Selectivity of Gamma Secretase Inhibitors” (ELAN PHARMACEUTICALS, INC., priority 2007, published 2009)
Each block holds one molecule with its values, some of them ahead of it.

Columns and labels:
[1] = molecular target: T1, gamma secretase, gamma cleavage (secreted Aβ) (Homo sapiens, UniProt P49768); assay: Aβ ELISA and IP/Western blot of conditioned media, HEK cells transfected with C99GVP constructs; assay type: cell-based; parameters: secreted Aβ42: unit not given here; settings: for secreted Aβ (Ab40, Ab42, total): 5 μM, 24 h, C99GVP transfectants, FIG. 5D; for Aβ-lowering potency with C99GVP compared with native substrate APP: FIG. 5E; for drop of Aβ40: Aβ40 ELISA, FIG. 9C; for reduction in total Aβ: IP/Western blot, FIG. 9B; for effect on secreted Aβ / Aβ production: words
T1 construct: endogenous in cells; host or cells: HEK 293, transiently transfected with substrate plasmids
Experimental: AICD neo-epitope antibodies were raised against the peptide VMLKKKC (SEQ ID NO:39). […] (FIGS. 15 and 16). P Cell Culture and Transient Transfection: Human embryonic kidney 293 (HEK 293) cells (ATCC) were grown in Dulbecco's Modified Eagle Medium with High Glucose (DMEM, obtained from Gibco/Invitrogen, Cat #11960) supplemented with 10% fetal bovine serum (Hyclone, SV 30014.03) and 50 units/ml penicillin and streptomycin (37° C., 5% CO2). Cells were used at less than passage number 30. At the time of seeding, viability of cells was greater than 95% as determined using a Vi-Cell Analyzer (Beckman-Coulter). Confluence of cells on plates was kept at greater than 95% during all phases of the experiment as determined with a standard tissue culture inverted microscope. All transfections were carried out on 5×10^6 cells in 6-well tissue culture plates (Costar). […] FuGENE6 reagent (Roche Cat. #11-814443001) was used according to manufacturer's protocol for the transient transfection of adherent cells. Transfected cells were reseeded onto 12 well (2×10^6 cells) and/or 96-well (5×10^4 cells) plates (Costar) 16 h post-transfection; fresh media was added either with or without gamma secretase inhibitors. The cells and conditioned media were harvested 48 h post-transfection for analysis.
(§1) Inhibitor Treatment of Transfected HEK Cell: The transition state analogue gamma secretase inhibitor-L685,458 (Sigma) and the peptidomimetic inhibitor-DAPT (Dovey, H. F., et al., J Neurochem., 2001; 76:173-181) were dissolved in DMSO to make 20 mM stocks. Similarly, a number of Elan's series of sulfonamide inhibitors were prepared and used as described herein (see, also FIGS. 11-14). Inhibitors were added to cell cultures (e.g., HEK) at the indicated final concentration, and the treated cells were harvested 48 h post-transfection. The metallo-proteinase inhibitor TAPI-1 (Calbiochem) was used at a final concentration of 40 μM. The Aβ-degrading enzyme inhibitors, Bacitracin (Calbiochem) and phosphoramidon (Calbiochem) were used at final concentration of 1 mg/ml and 40 μM, respectively. All inhibitor experiments were performed in triplicate and repeated at least three times.
Immunoprecipitation (IP) and Western Blot Detection of Aβ: Total Aβ peptides in conditioned medium or cell lysate were immuno-precipitated at 4° C. overnight with 4 μg of the 2H3 antibody, followed by incubation with 50 μl of a 50% protein G-Sepharose (GE Healthcare) slurry for 1 hr and three washes in the same lysis buffer as described above in the Western Blot discussion. Proteins were eluted from the solid-phase immunoprecipitates in Laemmli sample buffer by heating at 70° C. for 5 min and resolved on 10-20% Tris-Tricine SDS-PAGE or the modified Tris-Tricine/8M urea gels (Qi-Takahara, Y., et al., J Neurosci. (2005; 25, 436-445). After transferring onto nitrocellulose membranes (Invitrogen), the membranes were heated to 98° C. for 5 min in PBS, immunostained with the 2H3 antibody and visualized with Super-signal West Pico chemiluminescent substrate (Pierce). Each experiment was repeated at least three times.
(§2) ELISAs used to quantify different Aβ species were performed using standard techniques as described above and in (Johnson-Wood, K., et al., Proc. Natl. Acad. Sci. U.S.A., 1997; 94: 1550-1555, incorporated by reference). The Aβ40 and Aβ42 peptides in the samples were captured onto 2G3 or 21F12 antibody coated plates, respectively, and detected with a biotinylated 2H3 antibody. The fluorescence signal generated from a streptavidin-alkaline phosphatase conjugate (Roche) was measured with a CytoFlour microplate reader (Applied Biosystems). Synthetic Aβ40 or Aβ42 peptides (Anaspec) were used to generate standard curves (FIG. 10). All measurements were done in triplicate.

[2] = molecular target: T2, gamma secretase, APP γ and ε cleavage (Homo sapiens, UniProt P49768); assay: Aβ and AICD ELISA, Fas-APPsw-DD transfected 293 cells; assay type: cell-based
T2 construct: endogenous in cells; host or cells: 293 cells transfected with Fas-APPsw-DD
Experimental: as §2
An AICD sandwich ELISA was established based on capture of cell lysates with any of the AICD polyclonal or monoclonal antibodies discussed above, and reporting back with antibody directed at the extreme C-terminus of APP (e.g., 13G8, prepared in-house). Alternatively, luciferase-based reporter assays can be used to detect and quantify the presence of AICD and correlate those numbers to inhibitory potency of known or potential gamma secretase inhibitor compounds.
Polyclonal antibody AICD ELISA. HEK 293 cells were grown under standard conditions to ˜90% confluence. Cells were harvested, counted, and subsequently plated onto PDL-coated 60 mm dishes at 2×10^6 cells/dish in 5 mL media. […]

[3] = molecular target: T3, gamma secretase, AICD-GVP generated from C99-GVP (Homo sapiens, UniProt P49768); assay: Luciferase reporter gene assay, HEK293 cells transfected with C99GVP; assay type: cell-based; settings: dose-dependent, FIG. 5C
T3 construct: endogenous in cells
Experimental: as §1, with “All inhibitor experiments were performed in triplicate and repeated at least three times.” left out
Luciferase Reporter Gene Assay: Luciferase reporter assays were carried out 48 hr post-transfection. […] After adding 100 μl of luminescent substrate (Promega), the luciferase activity was measured with a MicroLumatPlus microplate luminometer (Berthold Technologies). The P-galactosidase activity was measured similarly, using a luminescent β-galactosidase substrate (BD Biosciences). […]
Luciferase Assay. […] Some residual luciferase activity remained in the presence of excess gamma secretase inhibitors, even though identical treatment completely abolished AICD production as measured by Western blot (FIG. 5B).

[4] = test system: AICD-GVP nuclear staining in COS-7 cells; assay: Immunostaining of transfected COS-7 cells; assay type: cell-based; settings: DAPT 5 μM, FIG. 5F
Experimental: Immunostaining: Wild type or transiently transfected COS-7 cells (ATCC) were fixed at room temperature with 2% paraformaldehyde in PBS for 20 min and subsequently permeabilized with 0.2% Triton X-100 in PBS for 10 min. […] All staining was visualized on a Bio-Rad MRC 1024ES confocal microscope (Bio-Rad) and captured with a coupled CCD camera.

[5] = transient expression in HEK cells, ELISA

Molecule: gamma secretase
Aβ secretion (western blot and Aβ40 ELISA of conditioned media) (C99GVP-SREBP1-gsnk): also maintained normal Aβ secretion | secreted Aβ (C99GVP-G25S): showed no obvious effect on secreted Aβ | drop of Aβ40 (C99GVP-S26L): 52.7±2.3% drop of Aβ40 | reduction in total Aβ (C99GVP-S26L): 65.7±8.5% reduction in total Aβ | decrease in total Aβ and in Aβ40 (C99GVP-K28S): an even more substantial (˜90%) decrease in both measurements | secreted Aβ (C99GVP-N27S): showed no obvious effect on secreted Aβ | reduction in secreted Aβ (C99GVP-SLSS): marked reduction (˜97%) in secreted Aβ

Molecule: C[C@H](NC(=O)Cc1cc(F)cc(F)c1)C(=O)N[C@H](C(=O)OC(C)(C)C)c1ccccc1 [DAPT]
γ/ε selectivity = IC50 AICD/IC50 Aβ [2]: 0.7 | luciferase reporter transactivation by AICD-GVP [3]: block luciferase reporter transactivation | nuclear staining of AICD-GVP [4]: abolished | secreted Aβ (Ab40, Ab42, total) [1]: block secreted Aβ | Aβ-lowering potency with C99GVP compared with native substrate APP ([1]; ELISA): equal Ab potency

Molecule: CC(C)C[C@H](NC(=O)[C@H](Cc1ccccc1)C[C@@H](O)[C@H](Cc1ccccc1)NC(=O)OC(C)(C)C)C(=O)N[C@@H](Cc1ccccc1)C(N)=O [L-685,458, reference compound]
γ/ε selectivity = IC50 AICD/IC50 Aβ [2]: 1.9 | luciferase reporter transactivation by AICD-GVP [3]: block luciferase reporter transactivation | secreted Aβ (Ab40, Ab42, total) [1]: block secreted Aβ | Aβ-lowering potency with C99GVP compared with native substrate APP ([1]; ELISA): equal Ab potency

Molecule: K28S: C99GVP point mutant in the GSNK motif (SEQ ID NO:46) (LEDAEFRHDSGYEVHHQKLVFFAEDVGSNSGAIIGLMVGGVVIATVIVITLVML)
drop of Aβ40 ([1]; versus C99GVP control): ~90% | reduction in total Aβ ([1]; versus C99GVP control): ~90%

Molecule: G25S: C99GVP point mutant in the GSNK motif (SEQ ID NO:43) (LEDAEFRHDSGYEVHHQKLVFFAEDVSSNKGAIIGLMVGGVVIATVIVITLVML)
effect on secreted Aβ / Aβ production ([1]; versus C99GVP control): no obvious effect

Molecule: N27S: C99GVP point mutant in the GSNK motif (SEQ ID NO:45) (LEDAEFRHDSGYEVHHQKLVFFAEDVGSSKGAIIGLMVGGVVIATVIVITLVML)
effect on secreted Aβ / Aβ production ([1]; versus C99GVP control): no obvious effect

Next, values leading:

Aβ42 fraction of the total Aβ ([1]; transient expression in HEK cells): 15.7±2.5% | secreted Aβ40 [1, 5]: 210.8 ± 19.2 pM | secreted Aβ42 [1, 5]: 39.1±6.4
Molecule: C99GVP: 99 amino acid C-terminal fragment of APP with Gal4-VP16 domain inserted (SEQ ID NO:47)

drop of Aβ40 ([1]; versus C99GVP control): 52.7±2.3% | reduction in total Aβ ([1]; versus C99GVP control): 65.7±8.5%
Molecule: S26L: C99GVP point mutant in the GSNK motif (SEQ ID NO:44) (LEDAEFRHDSGYEVHHQKLVFFAEDVGLNKGAIIGLMVGGVVIATVIVITLVML)

reduction in secreted Aβ ([1]; versus C99GVP control, FIG. 9B and 9C): ~97%
B1: C99GVP-SLSS: C99GVP in which the GSNK motif is substituted with SLSS from APLP2 (SEQ ID NO:51) (protein)
chain: DAEFRHDSGYEVHHQKLVFFAEDVSLSSGAIIGLMVGGVVIATVIVITLVMLKKKKLLSSIEQACDICRLKKLKCSKEKPKCAKCLKNNWECRYSPKTKRSPLTRAHLTEVESRLERLEQLFLLIFPREDLDMILKMDSLQDIKALLTGLFVQDNVNKDAVTDRLASVETDMPLTLRQHRISATSSSEESSNKGQRQLTVSGIPGDLAPPTDVSLGDELHLDGEDVAMAHADALDDFDLDMLGDGDSPGPGFTPHDSAPYGALDMADFEFEQMFTDALGIDEYGGQYTSIHHGVVEVDAAVTPEERHLSKMQQNGYENPTYKFFEQMQN
